In the supplement of paper PMC10567573 one finds protein stability index data, which are given here for 94 variants.

B1: NET1 (parent)
chain: PTPAKRRSSALWSEMLDITMKESL
B2: MYBL2 (parent)
chain: IAKHLKGRLGKQCRERWHNHLNPE
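Also: lentivirally expressed fusions sorted by FACS into six bins by GFP to DsRed ratio, PSI derived from sequencing read proportions per bin multiplied by bin number.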

In one data set the parent is B1. Kind of data set: protein stability index of a GFP-peptide fusion (GPS, HEK-293T) (PSI 1-6); higher = more stable. The conditions noted are these: c terminus: a fixed tail appended.
As for PTPAKRRSSVLWSEMLDITMKESL, the protein stability index stood at 1.58.
Still for that read-out and setting: for PTPAKPRSSALWSEMLDITMKESL the value was 2.02; for PTPAKTRSSALWSEMLDITMKESL, 1.76.
Same read-out and setting: for PTPAKRRSSALWSEMLDITMKEVL the value was 1.88.
Same read-out and setting: for PTPAKRRSSALWSEMLDITMKENL the value was 2.48; for PTPAKRRSCALWSEMLDITMKESL, 1.47; for PTPAKRRSSALWSEMLDIQMKESL, 1.93.
With PTPAKRRSSALWSEMLDIIMKESL, the protein stability index came to 1.04.
Same read-out and setting: in the case of PTPAKRRSSADWSEMLDITMKESL it was 4.29; in that of PTPAKRRPSALWSEMLDITMKESL, 2.01; in that of PTPAKRRSSALQSEMLDITMKESL, 4.46.
The same measure, in the same setting: in the case of PTPAKRRSSALDSEMLDITMKESL it was 5.38; in that of PTPAKRRSSALWSEVLDITMKESL, 2.9.
Still for that read-out and setting: for PTPAKRRSSALWSKMLDITMKESL the value was 2.87; for PTPAKRRSSALWSEMLDITMKESK, 3.05; for PTPAKRRSSALWSEMLDITMKESY, 1.88.
For the variant PTPAKRRSSALWSEMLDITKKESL, the protein stability index was found to be 2.75.
Still for that read-out and setting: for PTPAKRRSSALWSEMFDITMKESL the value was 2.1; for PTRAKRRSSALWSEMLDITMKESL, 2.5.
On the same count and under the same terms, for PTPAKRRSSALWSEMLDITMKGSL the value was 1.96; for PTPAKRRSSALWSEMLDITMKFSL, 3.11; for PTPAKRRSSALWSEMLDITMAESL, 2.38.

In the next data set the parent is B2. The description is as above. Particulars: c terminus: a fixed tail appended.
Turning to IASHLKGRLGKQCRERWHNHLNPE, the protein stability index was 1.44.
On the same count and under the same terms, for IAFHLKGRLGKQCRERWHNHLNPE the value was 2.46; for IAYHLKGRLGKQCRERWHNHLNPE, 2.17; for IALHLKGRLGKQCRERWHNHLNPE, 2.34.
With IAPHLKGRLGKQCRERWHNHLNPE, the protein stability index is 1.93.
Still for that read-out and setting: in the case of IAVHLKGRLGKQCRERWHNHLNPE it was 2.9.
On the same count and under the same terms, for IAAHLKGRLGKQCRERWHNHLNPE the value was 2.84.
In the case of IAGHLKGRLGKQCRERWHNHLNPE, the protein stability index amounted to 1.79.
The same measure, in the same setting: in the case of IAMHLKGRLGKQCRERWHNHLNPE it was 1.81.
On the same count and under the same terms, in the case of IAQHLKGRLGKQCRERWHNHLNPE it was 2.96.
Same read-out and setting: in the case of IATHLKGRLGKQCRERWHNHLNPE it was 1.81; in that of IAEHLKGRLGKQCRERWHNHLNPE, 2.
In the case of IACHLKGRLGKQCRERWHNHLNPE, the protein stability index was 2.25.
On to IADHLKGRLGKQCRERWHNHLNPE, for which the protein stability index was 2.3.
On the same count and under the same terms, in the case of IAWHLKGRLGKQCRERWHNHLNPE it was 1.95; in that of IANHLKGRLGKQCRERWHNHLNPE, 1.8; in that of IARHLKGRLGKQCRERWHNHLNPE, 2.03.
Same read-out and setting: in the case of IAHHLKGRLGKQCRERWHNHLNPE it was 2.32; in that of IAIHLKGRLGKQCRERWHNHLNPE, 1.51.
On the same count and under the same terms, for IYKHLKGRLGKQCRERWHNHLNPE the value was 1.76.
Take ISKHLKGRLGKQCRERWHNHLNPE: the protein stability index is 2.1.
Same read-out and setting: in the case of IIKHLKGRLGKQCRERWHNHLNPE it was 1.59.
Still for that read-out and setting: for INKHLKGRLGKQCRERWHNHLNPE the value was 2.2; for ITKHLKGRLGKQCRERWHNHLNPE, 2.37.
The same measure, in the same setting: in the case of IKKHLKGRLGKQCRERWHNHLNPE it was 2.12; in that of IWKHLKGRLGKQCRERWHNHLNPE, 1.64; in that of IPKHLKGRLGKQCRERWHNHLNPE, 1.75.
For the variant IVKHLKGRLGKQCRERWHNHLNPE, the protein stability index was determined as 1.53.
Still for that read-out and setting: in the case of ILKHLKGRLGKQCRERWHNHLNPE it was 3.74; in that of IGKHLKGRLGKQCRERWHNHLNPE, 1.95.
With IRKHLKGRLGKQCRERWHNHLNPE, the protein stability index turned out to be 2.53.
The same measure, in the same setting: for IMKHLKGRLGKQCRERWHNHLNPE the value was 1.6; for IEKHLKGRLGKQCRERWHNHLNPE, 2.16; for IDKHLKGRLGKQCRERWHNHLNPE, 2.15.
In the case of ICKHLKGRLGKQCRERWHNHLNPE, the protein stability index turned out to be 1.8.
Consider IHKHLKGRLGKQCRERWHNHLNPE, for which the protein stability index came out at 2.04.
Still for that read-out and setting: in the case of IQKHLKGRLGKQCRERWHNHLNPE it was 2.03; in that of IAKNLKGRLGKQCRERWHNHLNPE, 1.57; in that of IAKQLKGRLGKQCRERWHNHLNPE, 2.27.
On the same count and under the same terms, in the case of IAKPLKGRLGKQCRERWHNHLNPE it was 2.15; in that of IAKALKGRLGKQCRERWHNHLNPE, 2.33.
Same read-out and setting: for IAKMLKGRLGKQCRERWHNHLNPE the value was 1.83; for IAKCLKGRLGKQCRERWHNHLNPE, 3.5; for IAKELKGRLGKQCRERWHNHLNPE, 2.04.
Take IAKVLKGRLGKQCRERWHNHLNPE: the protein stability index was found to be 3.2.
Still for that read-out and setting: in the case of IAKRLKGRLGKQCRERWHNHLNPE it was 2.17; in that of IAKTLKGRLGKQCRERWHNHLNPE, 1.87.
Still for that read-out and setting: for IAKKLKGRLGKQCRERWHNHLNPE the value was 2.12; for IAKGLKGRLGKQCRERWHNHLNPE, 2.2.
Same read-out and setting: for IAKDLKGRLGKQCRERWHNHLNPE the value was 2.74.
Regarding IAKSLKGRLGKQCRERWHNHLNPE, the protein stability index came out at 1.73.
On the same count and under the same terms, in the case of IAKFLKGRLGKQCRERWHNHLNPE it was 2.52; in that of IAKLLKGRLGKQCRERWHNHLNPE, 2.33.
Take WAKHLKGRLGKQCRERWHNHLNPE: the protein stability index was determined as 1.36.
The same measure, in the same setting: for AAKHLKGRLGKQCRERWHNHLNPE the value was 2.37; for YAKHLKGRLGKQCRERWHNHLNPE, 1.56; for DAKHLKGRLGKQCRERWHNHLNPE, 2.06.
The same measure, in the same setting: for EAKHLKGRLGKQCRERWHNHLNPE the value was 2.53; for CAKHLKGRLGKQCRERWHNHLNPE, 1.49; for QAKHLKGRLGKQCRERWHNHLNPE, 2.64.
Same read-out and setting: for PAKHLKGRLGKQCRERWHNHLNPE the value was 2.6; for RAKHLKGRLGKQCRERWHNHLNPE, 2.1.
For MAKHLKGRLGKQCRERWHNHLNPE, the protein stability index was 2.58.
Same read-out and setting: for TAKHLKGRLGKQCRERWHNHLNPE the value was 2.64.
The same measure, in the same setting: for KAKHLKGRLGKQCRERWHNHLNPE the value was 2.18; for FAKHLKGRLGKQCRERWHNHLNPE, 2.7; for HAKHLKGRLGKQCRERWHNHLNPE, 2.19.
NAKHLKGRLGKQCRERWHNHLNPE: the protein stability index was found to be 2.45.
For the variant LAKHLKGRLGKQCRERWHNHLNPE, the protein stability index turned out to be 1.67.
On the same count and under the same terms, in the case of GAKHLKGRLGKQCRERWHNHLNPE it was 2.4; in that of SAKHLKGRLGKQCRERWHNHLNPE, 2.17.
Same read-out and setting: for VAKHLKGRLGKQCRERWHNHLNPE the value was 2.54.
